Experimental data taken from paper PMC9482650, “Quantitative fragmentomics allow affinity mapping of interactomes” (Nature Communications, 2022).
One block for each binder: values may come before it.

How the values were obtained:
Experiment in all cases: holdup assay
Parameters in all cases: key: below the threshold = too weak to quantify, mostly under pKd 3.1 to 4
Settings in all cases: plain residues with an end cap or a label only (N-terminal biotin on a linker: ado-ado)
MAST1, Q9Y2H9 = target: MAST1, Q9Y2H9
LIN7A, O14910 = target: T1, LIN7A, O14910
T1 sequence (O14910 103-200, limits assumed, looked up): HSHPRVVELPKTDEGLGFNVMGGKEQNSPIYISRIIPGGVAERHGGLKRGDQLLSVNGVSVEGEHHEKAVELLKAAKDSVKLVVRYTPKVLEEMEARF

GRIP2_4, Q9C0E4 = target: GRIP2_4, Q9C0E4
Inadl_2, Q8NI35 = target: Inadl_2, Q8NI35
NHERF4_2, Q86UT5 = target: NHERF4_2, Q86UT5
IL16_3, Q14005 = target: IL16_3, Q14005
GRIP1_7, Q9Y3R0 = target: T2, GRIP1_7, Q9Y3R0
T2 sequence (Q9Y3R0 999-1096, limits assumed, looked up): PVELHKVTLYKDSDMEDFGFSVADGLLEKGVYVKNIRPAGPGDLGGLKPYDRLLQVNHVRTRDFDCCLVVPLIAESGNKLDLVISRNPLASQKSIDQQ

SNTG2, Q9NY99 = target: T3, SNTG2, Q9NY99
T3 sequence (Q9NY99 68-166, limits assumed, looked up): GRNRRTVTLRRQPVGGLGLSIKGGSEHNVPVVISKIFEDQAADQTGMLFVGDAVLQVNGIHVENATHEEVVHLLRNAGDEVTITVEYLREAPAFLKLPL

FRMPD2_1, Q68DX3 = target: FRMPD2_1, Q68DX3
SNX27, Q96L92 = target: SNX27, Q96L92
IL16_1, Q14005 = target: IL16_1, Q14005
DLG4_2, P78352 = target: DLG4_2, P78352
NHERF4_1, Q86UT5-2 = target: NHERF4_1, Q86UT5-2
DLG4_3, P78352 = target: DLG4_3, P78352
HTRA2, O43464 = target: HTRA2, O43464
DLG1_2, Q12959 = target: DLG1_2, Q12959
GRIP1_4, Q9Y3R0 = target: T4, GRIP1_4, Q9Y3R0
T4 sequence (Q9Y3R0 467-571, limits assumed, looked up): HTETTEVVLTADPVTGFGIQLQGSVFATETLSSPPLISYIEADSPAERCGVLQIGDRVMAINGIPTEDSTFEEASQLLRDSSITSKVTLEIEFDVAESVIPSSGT

GRIP1_3, Q9Y3R0 = target: T5, GRIP1_3, Q9Y3R0
T5 sequence (Q9Y3R0 247-346, limits assumed, looked up): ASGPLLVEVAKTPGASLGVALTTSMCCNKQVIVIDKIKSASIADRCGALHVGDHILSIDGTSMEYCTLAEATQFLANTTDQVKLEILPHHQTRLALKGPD

CARD11, Q9BXL7 = target: T6, CARD11, Q9BXL7
T6 sequence (Q9BXL7 662-765, limits assumed, looked up): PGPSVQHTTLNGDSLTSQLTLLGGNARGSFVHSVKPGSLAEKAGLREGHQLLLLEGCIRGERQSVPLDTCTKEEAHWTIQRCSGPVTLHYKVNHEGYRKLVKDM

GRID2IP_2, A4D2P6 = target: GRID2IP_2, A4D2P6
SYNJ2BP, P57105 = target: T7, SYNJ2BP, P57105
T7 sequence (P57105 8-110, limits assumed, looked up): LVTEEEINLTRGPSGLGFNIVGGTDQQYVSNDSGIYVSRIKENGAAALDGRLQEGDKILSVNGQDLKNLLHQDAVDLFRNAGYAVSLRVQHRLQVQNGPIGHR

FRMPD2_3, Q68DX3 = target: FRMPD2_3, Q68DX3
DVL3, Q92997 = target: T8, DVL3, Q92997
T8 sequence (Q92997 244-331, limits assumed, looked up): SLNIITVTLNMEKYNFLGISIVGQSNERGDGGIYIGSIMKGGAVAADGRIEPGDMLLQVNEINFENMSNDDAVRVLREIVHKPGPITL

MAGI1_2, Q96QZ7 = target: MAGI1_2, Q96QZ7
NHERF4_4, Q86UT5 = target: NHERF4_4, Q86UT5
GRIP2_7, Q9C0E4 = target: GRIP2_7, Q9C0E4
PDZD7_3, Q9H5P4 = target: T9, PDZD7_3, Q9H5P4
T9 sequence (Q9H5P4 857-944, limits assumed, looked up): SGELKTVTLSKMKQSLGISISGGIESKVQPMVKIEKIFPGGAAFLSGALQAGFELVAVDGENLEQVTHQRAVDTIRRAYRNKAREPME

MPP7, Q5T2T1 = target: T10, MPP7, Q5T2T1
T10 sequence (Q5T2T1 134-230, limits assumed, looked up): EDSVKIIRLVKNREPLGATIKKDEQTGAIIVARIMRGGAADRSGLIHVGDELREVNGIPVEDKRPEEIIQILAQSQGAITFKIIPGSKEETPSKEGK

IL16_1, Q14005, sequence (Q14005 210-306): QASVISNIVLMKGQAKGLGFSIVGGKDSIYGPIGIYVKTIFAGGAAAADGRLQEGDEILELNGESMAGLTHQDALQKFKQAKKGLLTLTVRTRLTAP
IL16_3, Q14005, sequence (Q14005 1107-1207): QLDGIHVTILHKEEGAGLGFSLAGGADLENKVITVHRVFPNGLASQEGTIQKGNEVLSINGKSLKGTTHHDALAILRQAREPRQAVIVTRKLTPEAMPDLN
FRMPD2_1, Q68DX3, sequence (Q68DX3 770-861): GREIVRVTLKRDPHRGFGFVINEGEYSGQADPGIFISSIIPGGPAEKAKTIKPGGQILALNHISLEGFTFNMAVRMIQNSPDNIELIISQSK
MAGI1_2, Q96QZ7, sequence (Q96QZ7 456-580): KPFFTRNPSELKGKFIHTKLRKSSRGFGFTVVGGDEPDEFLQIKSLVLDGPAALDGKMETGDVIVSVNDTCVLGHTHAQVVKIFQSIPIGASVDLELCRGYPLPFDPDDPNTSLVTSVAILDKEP
DLG4_3, P78352, sequence (P78352 306-403): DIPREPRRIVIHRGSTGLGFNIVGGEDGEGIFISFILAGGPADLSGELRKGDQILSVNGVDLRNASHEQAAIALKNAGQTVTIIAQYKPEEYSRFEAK
DLG1_2, Q12959, sequence (Q12959 314-412): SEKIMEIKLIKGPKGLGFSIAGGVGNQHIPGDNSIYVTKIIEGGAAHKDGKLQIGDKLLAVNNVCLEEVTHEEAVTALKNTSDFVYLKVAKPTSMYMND
MAST1, Q9Y2H9, sequence (Q9Y2H9 962-1065): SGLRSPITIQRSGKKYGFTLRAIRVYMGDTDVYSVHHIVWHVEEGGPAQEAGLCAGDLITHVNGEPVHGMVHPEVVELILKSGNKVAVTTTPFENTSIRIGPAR
DLG4_2, P78352, sequence (P78352 155-259): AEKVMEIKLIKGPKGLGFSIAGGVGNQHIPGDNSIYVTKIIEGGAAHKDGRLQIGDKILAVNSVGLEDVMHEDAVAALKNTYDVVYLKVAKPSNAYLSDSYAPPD
HTRA2, O43464, sequence (O43464 355-458): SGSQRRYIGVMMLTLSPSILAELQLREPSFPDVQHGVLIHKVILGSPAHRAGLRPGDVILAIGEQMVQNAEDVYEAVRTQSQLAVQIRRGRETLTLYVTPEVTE
GRIP2_7, Q9C0E4, sequence (Q9C0E4 934-1023): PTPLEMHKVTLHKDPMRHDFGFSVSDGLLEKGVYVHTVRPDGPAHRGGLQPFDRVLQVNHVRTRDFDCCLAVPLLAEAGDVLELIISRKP
GRID2IP_2, A4D2P6, sequence (A4D2P6 272-370): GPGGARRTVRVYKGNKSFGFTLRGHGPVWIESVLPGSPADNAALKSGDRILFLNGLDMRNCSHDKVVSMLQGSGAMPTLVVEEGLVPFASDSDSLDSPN
Inadl_2, Q8NI35, sequence (Q8NI35 238-335): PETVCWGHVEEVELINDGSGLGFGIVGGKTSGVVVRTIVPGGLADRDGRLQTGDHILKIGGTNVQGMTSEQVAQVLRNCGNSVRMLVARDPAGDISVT
FRMPD2_3, Q68DX3, sequence (Q68DX3 1073-1166): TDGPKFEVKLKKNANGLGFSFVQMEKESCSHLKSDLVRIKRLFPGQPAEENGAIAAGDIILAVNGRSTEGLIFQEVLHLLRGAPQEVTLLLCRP
NHERF4_1, Q86UT5-2, sequence (Q86UT5 other isoform, or with tags, fused parts or gaps): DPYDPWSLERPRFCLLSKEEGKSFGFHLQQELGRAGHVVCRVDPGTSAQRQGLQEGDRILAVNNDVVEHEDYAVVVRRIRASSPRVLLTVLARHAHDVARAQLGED
GRIP2_4, Q9C0E4, sequence (Q9C0E4 446-548): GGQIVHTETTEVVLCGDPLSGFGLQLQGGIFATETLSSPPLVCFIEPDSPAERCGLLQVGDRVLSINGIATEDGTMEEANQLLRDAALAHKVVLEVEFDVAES
NHERF4_2, Q86UT5, sequence (Q86UT5 220-308): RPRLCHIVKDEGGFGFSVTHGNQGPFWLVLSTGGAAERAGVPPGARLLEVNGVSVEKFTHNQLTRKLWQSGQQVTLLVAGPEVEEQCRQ
NHERF4_4, Q86UT5, sequence (Q86UT5 464-550): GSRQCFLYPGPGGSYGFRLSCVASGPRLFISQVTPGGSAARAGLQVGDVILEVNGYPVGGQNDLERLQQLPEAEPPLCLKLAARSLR

pKd (MAST1, Q9Y2H9): below the threshold
pKd (LIN7A, O14910): below the threshold
pKd (GRIP2_4, Q9C0E4): below the threshold
pKd (Inadl_2, Q8NI35): below the threshold
pKd (NHERF4_2, Q86UT5): below the threshold
pKd (IL16_3, Q14005): below the threshold
pKd (GRIP1_7, Q9Y3R0): below the threshold
pKd (SNTG2, Q9NY99): below the threshold
pKd (FRMPD2_1, Q68DX3): below the threshold
pKd (SNX27, Q96L92): 5.06
pKd (IL16_1, Q14005): below the threshold
pKd (DLG4_2, P78352): below the threshold
pKd (NHERF4_1, Q86UT5-2): 3.99
pKd (DLG4_3, P78352): below the threshold
pKd (HTRA2, O43464): below the threshold
pKd (DLG1_2, Q12959): 3.83
pKd (GRIP1_4, Q9Y3R0): below the threshold
pKd (GRIP1_3, Q9Y3R0): below the threshold
pKd (CARD11, Q9BXL7): below the threshold
pKd (GRID2IP_2, A4D2P6): below the threshold
pKd (SYNJ2BP, P57105): below the threshold
pKd (FRMPD2_3, Q68DX3): below the threshold
pKd (DVL3, Q92997): below the threshold
pKd (MAGI1_2, Q96QZ7): below the threshold
pKd (NHERF4_4, Q86UT5): below the threshold
pKd (GRIP2_7, Q9C0E4): below the threshold
pKd (PDZD7_3, Q9H5P4): below the threshold
pKd (MPP7, Q5T2T1): below the threshold
B1: SLC1A1, P43005 (peptide)
chain: TISFTQTSQF

pKd (MAST1, Q9Y2H9): 4.31
pKd (LIN7A, O14910): 3.7
pKd (GRIP2_4, Q9C0E4): below the threshold
pKd (Inadl_2, Q8NI35): 3.5
pKd (NHERF4_2, Q86UT5): below the threshold
pKd (IL16_3, Q14005): below the threshold
pKd (GRIP1_7, Q9Y3R0): below the threshold
pKd (SNTG2, Q9NY99): 4.24
pKd (FRMPD2_1, Q68DX3): below the threshold
pKd (SNX27, Q96L92): 5.42
pKd (IL16_1, Q14005): 4.53
pKd (DLG4_2, P78352): 5.01
pKd (NHERF4_1, Q86UT5-2): below the threshold
pKd (DLG4_3, P78352): below the threshold
pKd (HTRA2, O43464): below the threshold
pKd (DLG1_2, Q12959): 5.03
pKd (GRIP1_4, Q9Y3R0): below the threshold
pKd (GRIP1_3, Q9Y3R0): below the threshold
pKd (CARD11, Q9BXL7): below the threshold
pKd (GRID2IP_2, A4D2P6): below the threshold
pKd (SYNJ2BP, P57105): 4.74
pKd (FRMPD2_3, Q68DX3): below the threshold
pKd (DVL3, Q92997): below the threshold
pKd (MAGI1_2, Q96QZ7): 3.55
pKd (NHERF4_4, Q86UT5): 3.75
pKd (GRIP2_7, Q9C0E4): below the threshold
pKd (PDZD7_3, Q9H5P4): 4.54
pKd (MPP7, Q5T2T1): below the threshold
B2: PTPRG, P23470 (peptide)
chain: DPAESMESLV

pKd (MAST1, Q9Y2H9): below the threshold
pKd (LIN7A, O14910): 3.48
pKd (GRIP2_4, Q9C0E4): below the threshold
pKd (Inadl_2, Q8NI35): 3.58
pKd (NHERF4_2, Q86UT5): below the threshold
pKd (IL16_3, Q14005): below the threshold
pKd (GRIP1_7, Q9Y3R0): 3.67
pKd (SNTG2, Q9NY99): 3.85
pKd (FRMPD2_1, Q68DX3): 3.92
pKd (SNX27, Q96L92): 4.08
pKd (IL16_1, Q14005): 3.79
pKd (DLG4_2, P78352): 4.11
pKd (NHERF4_1, Q86UT5-2): 3.91
pKd (DLG4_3, P78352): below the threshold
pKd (HTRA2, O43464): 3.76
pKd (DLG1_2, Q12959): 3.86
pKd (GRIP1_4, Q9Y3R0): 3.64
pKd (GRIP1_3, Q9Y3R0): below the threshold
pKd (CARD11, Q9BXL7): 3.56
pKd (GRID2IP_2, A4D2P6): 3.67
pKd (SYNJ2BP, P57105): 4.36
pKd (FRMPD2_3, Q68DX3): 3.77
pKd (DVL3, Q92997): 3.6
pKd (MAGI1_2, Q96QZ7): 3.88
pKd (NHERF4_4, Q86UT5): below the threshold
pKd (GRIP2_7, Q9C0E4): 3.7
pKd (PDZD7_3, Q9H5P4): 4.3
pKd (MPP7, Q5T2T1): below the threshold
B3: FZD10, Q9ULW2 (peptide)
chain: EIPAQSPTCV
